Reference: patent US20090305951A1 (published 2009)
Values belong to the binder of their own block, whether it stands above or below them.

Biological target: FGF-receptor on dissociated neurons from embryonic rat hippocampus (rat)
Assay: cell-based or functional assay

neurite outgrowth from hippocampal neurons, 50 µM peptide, relative to the entire FG loop peptide: ~50%
B1: truncated version of the FG loop peptide, nonamer Val 76-Ser 84 (peptide)
peptide: VAENQQGKS

neurite outgrowth from hippocampal neurons, 50 µM peptide, relative to the entire FG loop peptide: ~50%
B2: truncated version of the FG loop peptide, heptamer Ala 77-Lys 83 (peptide)
peptide: AENQQGK
